T1: human TNF receptor, biotinylated (human, UniProt P19438 30-211, limits assumed, biotinylated)
T1 construct: Immobilised on streptavidin-coated tubes
T1 sequence (looked up): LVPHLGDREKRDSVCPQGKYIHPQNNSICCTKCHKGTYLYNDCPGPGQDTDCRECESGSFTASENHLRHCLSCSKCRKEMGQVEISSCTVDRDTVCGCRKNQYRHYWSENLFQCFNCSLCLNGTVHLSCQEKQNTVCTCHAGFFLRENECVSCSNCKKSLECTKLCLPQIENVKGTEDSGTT

B1: anti-β-galactosidase Vκ domain antibody clone E5 (other)
VL: DIQMTQSPSSLSASVGDRVTITCRASQSVSSYLNWYQQKPGKAPKLLIYLASRLQSGVPSRFSGSGSGTDFTLTISSLQPEDFATYYCQQNWWLPPTFGQGTKVEIK
notes: The Vκ single domain itself; also called Vκ(E5); Vk(E5)
B2: VH(DOM1h-10-27)-scArc fusion protein (pIE2aAVH(DOM1h-10-27)) (other)
chain: MAEVQLLESGGGLVQPGGSLRLSCAASGFTFEWYWMGWVRQAPGKGLEWVSAISGSGGSTYYADSVKGRFTISRDNSKNTLYLQMNSLRAEDAAVYYCAKVKLGGGPNFGYRGQGTLVTVSSAAGGGSGGGHMKGMSKMPQFNLRWPREVLDLVRKVAEENGRSVNSEIYQRVMESFKKEGRIGAGGGSGGGSGGGSGGGHMKGMSKMPQFNLRWPREVLDLVRKVAEENGRSVNSEIYQRVMESFKKEGRIGAGGGSGGGSYPYDVPDYA
notes: Human heavy chain VH domain antibody against human TNF receptor fused to scArc; in vitro translated, assayed as protein-DNA complex (one Arc operator), with the stabilising 3F10 mAb; also called VH(DOM1h-10-27) domain antibody fusion construct with scArc
B3: HA-tagged scArc repressor expressed from pIE2aA / pIE2a^2A-derived genetic elements (other)
chain: MGSTGGAAAGSGGGSGGGHMKGMSKMPQFNLRWPREVLDLVRKVAEENGRSVNSEIYQRVMESFKKEGRIGAGGGSGGGSGGGSGGGHMKGMSKMPQFNLRWPREVLDLVRKVAEENGRSVNSEIYQRVMESFKKEGRIGAGGGSGGGSYPYDVPDYA
notes: The same protein is encoded by pIE2A, pIE2aA and pIE2a^2A (they differ in the number of operators on the DNA); also called scArc-HA; pIE2-encoded scArc-HA
B4: scArc expressed from pIE7aA, pIE7a2A, pIE7a3A or pIE7a4A (other)
chain: MGSTGGAAAKEAAAKEAAAKEAAAKELAAKEAAAKEAAAKEAAAKELAAGSGGGSGGGHMKGMSKMPQFNLRWPREVLDLVRKVAEENGRSVNSEIYQRVMESFKKEGRIGAGGGSGGGSGGGSGGGHMKGMSKMPQFNLRWPREVLDLVRKVAEENGRSVNSEIYQRVMESFKKEGRIGAGGGSGGGSYPYDVPDYA
notes: in vitro translated in the presence of 3F10 αHA mAb; also called scArc complex with DNA
B5: HA-tagged scArc repressor expressed from pIE3A / pIE3aA-derived genetic elements (other)
chain: MSGSGGGSGGGHMKGMSKMPQFNLRWPREVLDLVRKVAEENGRSVNSEIYQRVMESFKKEGRIGAGGGSGGGSGGGSGGGHMKGMSKMPQFNLRWPREVLDLVRKVAEENGRSVNSEIYQRVMESFKKEGRIGAGGGSGGGSMGSTGGAAARSYPYDVPDYA
notes: In vitro translated; differs from the pIE2 form in that the MCS-encoded region lies between scArc and the HA tag; also called pIE3-derived scArc-HA; scArc-HA

How the values were obtained:
[1] = target: T2, β-galactosidase (Sigma), biotinylated (Escherichia coli (strain K12), UniProt P00722 2-1024 = β-galactosidase, Biotinylated (sites not given); the native enzyme is a homotetramer, and one chain is given); assay: method not stated
T2 construct: Immobilised on streptavidin-coated tubes or wells

[2] = target: T3, BSA (Sigma), biotinylated (UniProt P02769 25-607); assay: protein-DNA complex captured on biotinylated protein in streptavidin-coated PCR tubes; co-captured DNA detected by PCR and gel
T3 construct: Negative control surface

[3] = target: T4, protein A (Sigma), biotinylated (UniProt P38507 37-477); assay: as above
T4 construct: Immobilised on streptavidin-coated tubes; also called pA

[4] = target: T1, human TNF receptor, biotinylated; assay: as above

T3 sequence (P02769 25-607 limits assumed): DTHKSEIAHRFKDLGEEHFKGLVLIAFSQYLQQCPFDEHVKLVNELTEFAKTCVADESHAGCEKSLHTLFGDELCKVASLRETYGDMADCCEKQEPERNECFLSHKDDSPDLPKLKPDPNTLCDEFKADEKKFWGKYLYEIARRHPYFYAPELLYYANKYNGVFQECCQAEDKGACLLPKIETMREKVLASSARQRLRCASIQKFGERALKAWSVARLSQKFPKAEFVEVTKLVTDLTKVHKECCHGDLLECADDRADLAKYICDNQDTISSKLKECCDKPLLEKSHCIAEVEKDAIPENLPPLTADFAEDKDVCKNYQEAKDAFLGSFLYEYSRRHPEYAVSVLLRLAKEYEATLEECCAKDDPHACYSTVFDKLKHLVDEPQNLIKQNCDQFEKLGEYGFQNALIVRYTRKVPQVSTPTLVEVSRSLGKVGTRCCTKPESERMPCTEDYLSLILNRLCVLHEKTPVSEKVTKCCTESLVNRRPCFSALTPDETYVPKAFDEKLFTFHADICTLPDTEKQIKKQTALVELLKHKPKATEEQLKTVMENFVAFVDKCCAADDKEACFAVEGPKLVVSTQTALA
T2 sequence (P00722 2-1024 limits assumed): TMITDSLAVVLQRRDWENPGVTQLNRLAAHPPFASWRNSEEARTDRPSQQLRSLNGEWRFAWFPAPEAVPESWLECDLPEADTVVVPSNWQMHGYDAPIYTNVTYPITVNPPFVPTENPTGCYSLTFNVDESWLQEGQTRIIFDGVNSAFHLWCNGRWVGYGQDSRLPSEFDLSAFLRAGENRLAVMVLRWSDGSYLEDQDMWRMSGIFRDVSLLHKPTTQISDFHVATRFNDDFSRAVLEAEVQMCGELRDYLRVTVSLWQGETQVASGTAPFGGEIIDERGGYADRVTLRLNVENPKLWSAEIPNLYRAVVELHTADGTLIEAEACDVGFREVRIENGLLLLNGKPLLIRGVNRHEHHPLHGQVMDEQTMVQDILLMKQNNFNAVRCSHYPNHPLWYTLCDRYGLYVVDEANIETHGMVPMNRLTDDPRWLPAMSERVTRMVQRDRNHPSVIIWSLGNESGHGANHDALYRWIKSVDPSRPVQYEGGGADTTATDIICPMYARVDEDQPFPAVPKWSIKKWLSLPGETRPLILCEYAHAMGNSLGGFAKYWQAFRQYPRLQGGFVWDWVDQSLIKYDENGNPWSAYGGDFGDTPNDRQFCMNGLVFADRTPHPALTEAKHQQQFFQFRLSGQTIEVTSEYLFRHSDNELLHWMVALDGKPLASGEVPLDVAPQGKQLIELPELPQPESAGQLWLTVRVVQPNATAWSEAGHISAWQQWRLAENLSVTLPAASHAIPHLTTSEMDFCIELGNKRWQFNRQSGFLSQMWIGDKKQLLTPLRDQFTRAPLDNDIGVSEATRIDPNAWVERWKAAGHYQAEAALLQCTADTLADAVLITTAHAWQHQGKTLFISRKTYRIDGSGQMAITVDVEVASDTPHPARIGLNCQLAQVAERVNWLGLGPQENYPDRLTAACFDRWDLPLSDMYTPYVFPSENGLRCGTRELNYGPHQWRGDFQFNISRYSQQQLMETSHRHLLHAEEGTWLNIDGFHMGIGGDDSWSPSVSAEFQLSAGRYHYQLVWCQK

Binder	Kd [1]	binding result [2]	binding result [3]	binding result [4]
B1	> 1000 nM	–	–	–
B2	–	no binding	–	–
B3	–	no binding	no binding	no binding
B4	–	no binding	no binding	–
B5	–	no binding	–	–
